Some results are limits rather than exact numbers.

This assay addresses human ubiquitin (human) (UniProt P0CG48). The assay can be described thus: NMR titration.

Take “WT spartin 155-367 (GST tag removed) (from UniProt Q8N0X7 155-367) (domain or fragment)”: the Kd (usually the concentration at which binding is half-saturated) was below 10 µM.

These data come from article PMC3982999.
